Substrate: Nc1ncnc2c1ncn2[C@@H]1O[C@H](COP(=O)(O)OP(=O)(O)OP(=O)(O)O)[C@@H](O)[C@H]1O
Assay: ATP/NADH coupled assay (pyruvate kinase / lactate dehydrogenase), A340, Hanes-Woolf plot
Assay type: biochemical, Nostoc sp. PCC 7120 = FACHB-418
Conditions: 50 mM Tris-HCl pH 8.0, 20 mM KCl, 5 mM MgCl2, 25 °C, 50 μg GvpN in assay, methods state NADH (40 to 200 μM), not ATP, was varied

B1: GvpN (Nostoc sp. PCC 7120 = FACHB-418) (protein)
chain: MTLTANNKKRAVLRVRPGQFVVTPAIEQVAIRALRYLTSGFAIHLRGPAGTGKTTLAMHLANCLDRPIMLIFGDDEFKSSDLIGSESGYTHKKLLDNYIHSVLKVEDEFKQNWVDSRLTLACREGFTLVYDEFNRSRPEVNNVLLSALEEKILTLPPSSNQPEYLHVNPQFRAIFTSNPEEYCGVHSTQDALMDRLVTINMPEPDELTQTEILAQKTALNRADALLIVRLVKAFRSRTGGEKTSGLRSCLMIAKVCAEHNILVSPQSSDFREICADVLFNRTNWSASEAATIFLELLNHLDLQQIEEFKNSIIPEDTDAIAEGGFPTIIDSHFGTLDSEVLEQPGVEDSIPFEQEIYLYLQQYKSAALALVQQEFELSRTVATNALNSLEQKGLVSKNNHVYTIEEPNQS
notes: recombinant, C-terminal 6xHis tag (modified pET-29a, same manner as GvpF), E. coli BL21(DE3), Ni-NTA and Superdex 200; N-terminal AAA domain
Km: 3.9 ± 1.5 µM | kcat: 35 ± 2 s⁻¹
